Literature values, collected in paper PMC7821625.

Columns and labels:
[1] = biological target: plasminogen (Homo sapiens) (UniProt P00747)
[2] = biological target: fibronectin (Homo sapiens) (UniProt P02751)
Sequence of UniProt P02751 (P02751 32-2477): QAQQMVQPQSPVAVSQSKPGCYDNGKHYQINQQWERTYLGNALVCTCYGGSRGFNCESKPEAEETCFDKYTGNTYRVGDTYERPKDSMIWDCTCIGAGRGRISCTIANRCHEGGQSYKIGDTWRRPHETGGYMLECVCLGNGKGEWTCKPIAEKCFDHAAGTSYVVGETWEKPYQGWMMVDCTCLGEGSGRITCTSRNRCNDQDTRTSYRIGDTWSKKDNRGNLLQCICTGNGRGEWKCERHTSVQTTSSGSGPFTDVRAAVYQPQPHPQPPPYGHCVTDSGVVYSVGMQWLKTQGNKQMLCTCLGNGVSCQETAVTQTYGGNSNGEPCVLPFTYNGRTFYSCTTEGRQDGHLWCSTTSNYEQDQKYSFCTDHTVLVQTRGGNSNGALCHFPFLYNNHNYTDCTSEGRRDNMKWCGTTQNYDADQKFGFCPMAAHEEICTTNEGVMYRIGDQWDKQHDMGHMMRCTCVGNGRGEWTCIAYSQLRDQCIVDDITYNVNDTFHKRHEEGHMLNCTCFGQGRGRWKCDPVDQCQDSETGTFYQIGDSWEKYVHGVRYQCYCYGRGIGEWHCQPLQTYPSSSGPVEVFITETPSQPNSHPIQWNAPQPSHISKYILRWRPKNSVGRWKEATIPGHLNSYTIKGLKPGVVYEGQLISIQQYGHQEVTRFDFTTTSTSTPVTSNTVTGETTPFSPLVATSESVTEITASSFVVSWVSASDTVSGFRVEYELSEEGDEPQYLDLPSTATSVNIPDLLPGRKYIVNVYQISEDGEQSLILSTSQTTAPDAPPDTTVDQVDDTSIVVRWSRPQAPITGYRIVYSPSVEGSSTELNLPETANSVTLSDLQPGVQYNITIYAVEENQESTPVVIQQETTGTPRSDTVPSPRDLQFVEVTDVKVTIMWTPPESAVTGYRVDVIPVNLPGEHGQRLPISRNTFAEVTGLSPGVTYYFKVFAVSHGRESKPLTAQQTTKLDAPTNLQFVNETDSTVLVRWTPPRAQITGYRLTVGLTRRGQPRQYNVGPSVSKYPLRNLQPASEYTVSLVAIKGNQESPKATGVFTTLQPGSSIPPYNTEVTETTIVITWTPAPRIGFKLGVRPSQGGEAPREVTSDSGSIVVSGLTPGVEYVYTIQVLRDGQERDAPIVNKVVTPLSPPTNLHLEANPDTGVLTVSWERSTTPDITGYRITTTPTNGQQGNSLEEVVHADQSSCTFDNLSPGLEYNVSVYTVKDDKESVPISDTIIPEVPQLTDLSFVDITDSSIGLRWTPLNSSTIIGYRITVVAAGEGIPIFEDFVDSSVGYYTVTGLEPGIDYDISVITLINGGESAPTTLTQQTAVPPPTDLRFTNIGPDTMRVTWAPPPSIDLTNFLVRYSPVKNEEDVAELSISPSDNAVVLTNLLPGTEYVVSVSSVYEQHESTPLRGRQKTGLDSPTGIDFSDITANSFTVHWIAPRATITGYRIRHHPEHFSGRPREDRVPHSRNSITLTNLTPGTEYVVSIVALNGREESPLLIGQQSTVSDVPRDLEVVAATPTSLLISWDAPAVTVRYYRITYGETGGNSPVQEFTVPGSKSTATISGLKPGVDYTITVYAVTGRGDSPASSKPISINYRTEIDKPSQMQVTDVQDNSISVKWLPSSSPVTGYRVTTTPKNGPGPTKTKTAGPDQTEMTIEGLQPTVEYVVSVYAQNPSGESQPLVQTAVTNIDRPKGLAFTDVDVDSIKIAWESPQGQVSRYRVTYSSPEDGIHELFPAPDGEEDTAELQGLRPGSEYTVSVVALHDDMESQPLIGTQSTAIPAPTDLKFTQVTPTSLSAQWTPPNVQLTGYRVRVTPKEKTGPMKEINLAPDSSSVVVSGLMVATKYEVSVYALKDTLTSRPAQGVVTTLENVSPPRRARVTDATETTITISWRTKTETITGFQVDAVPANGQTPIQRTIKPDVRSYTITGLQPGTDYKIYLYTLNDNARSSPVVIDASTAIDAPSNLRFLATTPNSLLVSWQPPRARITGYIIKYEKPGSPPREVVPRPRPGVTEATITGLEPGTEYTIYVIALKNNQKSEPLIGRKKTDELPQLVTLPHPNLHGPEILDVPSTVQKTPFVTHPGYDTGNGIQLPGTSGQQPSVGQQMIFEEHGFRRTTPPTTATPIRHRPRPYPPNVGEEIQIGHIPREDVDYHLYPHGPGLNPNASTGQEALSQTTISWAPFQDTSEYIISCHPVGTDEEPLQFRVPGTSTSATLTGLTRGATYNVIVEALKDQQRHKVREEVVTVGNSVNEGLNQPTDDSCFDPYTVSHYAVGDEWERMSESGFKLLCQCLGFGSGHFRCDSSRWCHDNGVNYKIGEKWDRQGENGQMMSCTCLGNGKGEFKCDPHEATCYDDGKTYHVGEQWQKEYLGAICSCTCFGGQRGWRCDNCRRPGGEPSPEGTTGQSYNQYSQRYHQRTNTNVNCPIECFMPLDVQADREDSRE

Sequence of UniProt P00747 (P00747 20-810): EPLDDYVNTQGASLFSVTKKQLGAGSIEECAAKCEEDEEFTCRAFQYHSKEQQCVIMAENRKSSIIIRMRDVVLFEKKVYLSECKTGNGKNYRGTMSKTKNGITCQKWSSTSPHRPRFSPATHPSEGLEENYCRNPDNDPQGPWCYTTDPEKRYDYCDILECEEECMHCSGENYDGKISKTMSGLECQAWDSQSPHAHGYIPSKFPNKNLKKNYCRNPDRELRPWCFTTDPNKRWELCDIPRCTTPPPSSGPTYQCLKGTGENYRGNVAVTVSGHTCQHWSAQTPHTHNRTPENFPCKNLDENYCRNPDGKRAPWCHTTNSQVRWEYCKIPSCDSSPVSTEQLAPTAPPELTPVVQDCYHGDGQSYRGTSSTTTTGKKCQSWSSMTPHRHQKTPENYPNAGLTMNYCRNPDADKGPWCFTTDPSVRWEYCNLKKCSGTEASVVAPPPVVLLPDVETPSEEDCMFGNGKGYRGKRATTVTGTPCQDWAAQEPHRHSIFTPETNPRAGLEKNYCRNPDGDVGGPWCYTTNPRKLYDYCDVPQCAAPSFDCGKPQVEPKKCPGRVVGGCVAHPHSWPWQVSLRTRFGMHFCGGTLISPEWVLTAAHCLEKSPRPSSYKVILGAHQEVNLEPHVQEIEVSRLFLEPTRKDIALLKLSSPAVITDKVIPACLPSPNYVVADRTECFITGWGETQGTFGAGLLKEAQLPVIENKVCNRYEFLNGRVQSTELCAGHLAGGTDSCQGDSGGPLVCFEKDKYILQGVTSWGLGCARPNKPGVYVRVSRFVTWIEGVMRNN

Substance: LigA LigA7'-13 (from UniProt Q72MA6)
- Kd [1]: 1200 nM
- Kd [2]: 126 nM
